Measured values from the supplement of paper PMC7125110.
± gives the standard error. For some of these results: This sample holds only a part of the variants without activity.

B1: glmS ribozyme (parent)
chain: AUAAAAGCGCCAGAACUACAGAAAUGUAGUUGACGAGGAGGAGGUUUAUCGAAUUUUCGGCGGAUGCCUCCAAA

What was measured:
Conditions in all cases: with glucosamine-6-phosphate
glucosamine-6-phosphate [1] = variants of: B1; assay: kcat; higher = faster cleavage; RNA array
Outline: (§1)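 The measurements used barcoded ribozyme variants on sequenced MiSeq chips, transcribed in situ by E. coli RNA polymerase and tracked at 37 °C with a hybridised Cy3 probe. Glucosamine-6-phosphate, 40 μM to 10 mM in HEPES/KCl/Mg(OAc)2 buffer, was flowed in while tiles were imaged over ~14 h. Baseline-normalised signals, also normalised to non-cleaving reference variants, gave per-tile medians that were fit to one- or two-exponential decays for kobs. kcat and KM resulted from weighted Michaelis–Menten fits across concentrations.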

glucosamine-6-phosphate [2] = variants of: B1; assay: KM; higher = weaker cofactor use; RNA array
Outline: as §1

glucosamine-6-phosphate [3] = variants of: B1; assay: self-cleavage kobs at 40 uM GlcN6P; higher = faster cleavage; RNA array
Outline: as §1

glucosamine-6-phosphate [4] = variants of: B1; assay: self-cleavage kobs at 160 uM GlcN6P; higher = faster cleavage; RNA array
Outline: as §1

glucosamine-6-phosphate [5] = variants of: B1; assay: self-cleavage kobs at 640 uM GlcN6P; higher = faster cleavage; RNA array
Outline: as §1

glucosamine-6-phosphate [6] = variants of: B1; assay: self-cleavage kobs at 2500 uM GlcN6P; higher = faster cleavage; RNA array
Outline: as §1

glucosamine-6-phosphate [7] = variants of: B1; assay: self-cleavage kobs at 10000 uM GlcN6P; higher = faster cleavage; RNA array
Outline: as §1

G29U C68U
kcat (glucosamine-6-phosphate [1]): 0.0008 ± 6.2e-05 s⁻¹
KM (glucosamine-6-phosphate [2]): 1710 ± 230 µM
self-cleavage kobs at 40 uM GlcN6P (glucosamine-6-phosphate [3]): 2.51e-05 ± 1e-05 s⁻¹
self-cleavage kobs at 160 uM GlcN6P (glucosamine-6-phosphate [4]): 6.87e-05 ± 1e-05 s⁻¹
self-cleavage kobs at 640 uM GlcN6P (glucosamine-6-phosphate [5]): 0.00022 ± 2.5e-05 s⁻¹
self-cleavage kobs at 2500 uM GlcN6P (glucosamine-6-phosphate [6]): 0.000435 ± 5.5e-05 s⁻¹
self-cleavage kobs at 10000 uM GlcN6P (glucosamine-6-phosphate [7]): 0.000719 ± 7.8e-05 s⁻¹

C11A U56A
kcat (glucosamine-6-phosphate [1]): 0.000143 ± 1.9e-06 s⁻¹
KM (glucosamine-6-phosphate [2]): 2090 ± 78 µM
self-cleavage kobs at 640 uM GlcN6P (glucosamine-6-phosphate [5]): 3.27e-05 ± 1e-05 s⁻¹
self-cleavage kobs at 2500 uM GlcN6P (glucosamine-6-phosphate [6]): 7.89e-05 ± 1.5e-05 s⁻¹
self-cleavage kobs at 10000 uM GlcN6P (glucosamine-6-phosphate [7]): 0.000118 ± 1.3e-05 s⁻¹

A33U G59U
kcat (glucosamine-6-phosphate [1]): < 1e-05 s⁻¹
self-cleavage kobs at 40 uM GlcN6P (glucosamine-6-phosphate [3]): < 1e-05 s⁻¹
self-cleavage kobs at 640 uM GlcN6P (glucosamine-6-phosphate [5]): < 1e-05 s⁻¹
self-cleavage kobs at 2500 uM GlcN6P (glucosamine-6-phosphate [6]): < 1e-05 s⁻¹

C11U A39U
kcat (glucosamine-6-phosphate [1]): 0.00145 ± 0.00027 s⁻¹
KM (glucosamine-6-phosphate [2]): 3780 ± 1200 µM
self-cleavage kobs at 160 uM GlcN6P (glucosamine-6-phosphate [4]): 4.38e-05 ± 1.1e-05 s⁻¹
self-cleavage kobs at 640 uM GlcN6P (glucosamine-6-phosphate [5]): 0.000277 ± 4.8e-05 s⁻¹
self-cleavage kobs at 2500 uM GlcN6P (glucosamine-6-phosphate [6]): 0.000641 ± 0.00011 s⁻¹
self-cleavage kobs at 10000 uM GlcN6P (glucosamine-6-phosphate [7]): 0.00102 ± 0.00011 s⁻¹

U54A U56A
kcat (glucosamine-6-phosphate [1]): 0.0109 ± 0.0014 s⁻¹
KM (glucosamine-6-phosphate [2]): 2140 ± 380 µM
self-cleavage kobs at 40 uM GlcN6P (glucosamine-6-phosphate [3]): 0.00022 ± 4e-05 s⁻¹
self-cleavage kobs at 160 uM GlcN6P (glucosamine-6-phosphate [4]): 0.000706 ± 0.0002 s⁻¹
self-cleavage kobs at 640 uM GlcN6P (glucosamine-6-phosphate [5]): 0.00224 ± 0.00048 s⁻¹
self-cleavage kobs at 2500 uM GlcN6P (glucosamine-6-phosphate [6]): 0.00712 ± 0.002 s⁻¹
self-cleavage kobs at 10000 uM GlcN6P (glucosamine-6-phosphate [7]): 0.00887 ± 0.0017 s⁻¹

A52G G66U
kcat (glucosamine-6-phosphate [1]): 0.00018 ± 2.4e-05 s⁻¹
KM (glucosamine-6-phosphate [2]): 4030 ± 1300 µM
self-cleavage kobs at 640 uM GlcN6P (glucosamine-6-phosphate [5]): 2.89e-05 ± 1.1e-05 s⁻¹
self-cleavage kobs at 2500 uM GlcN6P (glucosamine-6-phosphate [6]): 6.2e-05 ± 1.6e-05 s⁻¹
self-cleavage kobs at 10000 uM GlcN6P (glucosamine-6-phosphate [7]): 0.00013 ± 1.5e-05 s⁻¹

A12U C71U
kcat (glucosamine-6-phosphate [1]): 0.0948 ± 0.017 s⁻¹
KM (glucosamine-6-phosphate [2]): 1790 ± 350 µM
self-cleavage kobs at 40 uM GlcN6P (glucosamine-6-phosphate [3]): 0.00207 ± 0.00018 s⁻¹
self-cleavage kobs at 160 uM GlcN6P (glucosamine-6-phosphate [4]): 0.00891 ± 0.0017 s⁻¹
self-cleavage kobs at 640 uM GlcN6P (glucosamine-6-phosphate [5]): 0.0214 ± 0.0049 s⁻¹
self-cleavage kobs at 2500 uM GlcN6P (glucosamine-6-phosphate [6]): 0.0611 ± 0.02 s⁻¹
self-cleavage kobs at 10000 uM GlcN6P (glucosamine-6-phosphate [7]): 0.0826 ± 0.025 s⁻¹

U30C C70G
kcat (glucosamine-6-phosphate [1]): 5.67e-05 ± 5.3e-06 s⁻¹
self-cleavage kobs at 160 uM GlcN6P (glucosamine-6-phosphate [4]): 5.73e-05 ± 1.4e-05 s⁻¹
self-cleavage kobs at 640 uM GlcN6P (glucosamine-6-phosphate [5]): 6.49e-05 ± 1.1e-05 s⁻¹
self-cleavage kobs at 2500 uM GlcN6P (glucosamine-6-phosphate [6]): 4.88e-05 ± 9e-06 s⁻¹
self-cleavage kobs at 10000 uM GlcN6P (glucosamine-6-phosphate [7]): 5.52e-05 ± 1e-05 s⁻¹

A53C U57G
kcat (glucosamine-6-phosphate [1]): 0.000348 ± 0.00012 s⁻¹
self-cleavage kobs at 640 uM GlcN6P (glucosamine-6-phosphate [5]): 9.98e-05 ± 1.6e-05 s⁻¹
self-cleavage kobs at 2500 uM GlcN6P (glucosamine-6-phosphate [6]): 0.000143 ± 1.9e-05 s⁻¹
self-cleavage kobs at 10000 uM GlcN6P (glucosamine-6-phosphate [7]): 0.000339 ± 4.6e-05 s⁻¹

G13U U30C
kcat (glucosamine-6-phosphate [1]): 0.000509 ± 0.00014 s⁻¹
KM (glucosamine-6-phosphate [2]): 3530 ± 1600 µM
self-cleavage kobs at 160 uM GlcN6P (glucosamine-6-phosphate [4]): 3.75e-05 ± 1e-05 s⁻¹
self-cleavage kobs at 640 uM GlcN6P (glucosamine-6-phosphate [5]): 6.12e-05 ± 1.2e-05 s⁻¹
self-cleavage kobs at 2500 uM GlcN6P (glucosamine-6-phosphate [6]): 0.000253 ± 3.1e-05 s⁻¹
self-cleavage kobs at 10000 uM GlcN6P (glucosamine-6-phosphate [7]): 0.000354 ± 4.9e-05 s⁻¹

A64G G66A
kcat (glucosamine-6-phosphate [1]): 0.0158 ± 0.0059 s⁻¹
KM (glucosamine-6-phosphate [2]): 936 ± 460 µM
self-cleavage kobs at 40 uM GlcN6P (glucosamine-6-phosphate [3]): 0.000837 ± 9.3e-05 s⁻¹
self-cleavage kobs at 160 uM GlcN6P (glucosamine-6-phosphate [4]): 0.00197 ± 0.00028 s⁻¹
self-cleavage kobs at 640 uM GlcN6P (glucosamine-6-phosphate [5]): 0.00554 ± 0.0008 s⁻¹
self-cleavage kobs at 2500 uM GlcN6P (glucosamine-6-phosphate [6]): 0.0124 ± 0.0025 s⁻¹
self-cleavage kobs at 10000 uM GlcN6P (glucosamine-6-phosphate [7]): 0.0215 ± 0.0052 s⁻¹

U30G U69G
kcat (glucosamine-6-phosphate [1]): 3.4e-05 ± 1.2e-05 s⁻¹
self-cleavage kobs at 160 uM GlcN6P (glucosamine-6-phosphate [4]): 5.83e-05 ± 1.7e-05 s⁻¹
self-cleavage kobs at 640 uM GlcN6P (glucosamine-6-phosphate [5]): 6.34e-05 ± 1.3e-05 s⁻¹
self-cleavage kobs at 2500 uM GlcN6P (glucosamine-6-phosphate [6]): 3.55e-05 ± 8.8e-06 s⁻¹

A12G U30C
kcat (glucosamine-6-phosphate [1]): 0.000109 ± 8.8e-06 s⁻¹
KM (glucosamine-6-phosphate [2]): 3180 ± 800 µM
self-cleavage kobs at 640 uM GlcN6P (glucosamine-6-phosphate [5]): 2.84e-05 ± 1.3e-05 s⁻¹
self-cleavage kobs at 2500 uM GlcN6P (glucosamine-6-phosphate [6]): 4.54e-05 ± 7.7e-06 s⁻¹
self-cleavage kobs at 10000 uM GlcN6P (glucosamine-6-phosphate [7]): 8.29e-05 ± 5.8e-06 s⁻¹

U57A U69G
kcat (glucosamine-6-phosphate [1]): 4.58e-05 ± 6.6e-06 s⁻¹
self-cleavage kobs at 160 uM GlcN6P (glucosamine-6-phosphate [4]): 3.35e-05 ± 1.6e-05 s⁻¹
self-cleavage kobs at 640 uM GlcN6P (glucosamine-6-phosphate [5]): 5.15e-05 ± 1.3e-05 s⁻¹
self-cleavage kobs at 2500 uM GlcN6P (glucosamine-6-phosphate [6]): 3.88e-05 ± 1.3e-05 s⁻¹
